{"source": "patent CN114790240A", "about": "(UNIV ZHENGZHOU; UNIV HENAN AGRICULTURAL, dated 2022)", "key": {"SARS-CoV-2野生株假病毒 (刺突蛋白)": {"biological_target": "SARS-CoV-2野生株假病毒 (刺突蛋白) (SARS-CoV-2, UniProt P0DTC2 14-1273)", "assay": "cell-based or functional assay"}, "[1]": {"biological_target": "重组RBD蛋白 (SARS-CoV-2 RBD蛋白) (SARS-CoV-2, UniProt P0DTC2 331-524)"}}}
{"binder": "单克隆抗体9D4 (antibody, V domains shown) VH: QVHLQQSGPELVKPGASVKISCKSSGYALTDYYINWVKQRPGQGLEWIGWIFPGNDYTYFNEKFKDKATLTLDKSSRTAYMLLSSLTTEDSAVYFCARYGDGNYVYFDYWGQGTSLTVSS VL: ETVLIQSPALMAASPGEKVTITCSVSSSISSSNLHWYQQKSGNSPKPWIYGTSNLASGVPVRFSGSGSGTSYSLTISSMEAEDAATYYCQQWSSYPLTFGAGTKLELK", "values": [{"measurement": "假病毒中和活性IC50", "setting": "SARS-CoV-2野生株假病毒 (刺突蛋白)", "value": 112, "unit": "ng/mL"}, {"measurement": "EC50", "setting": "[1]", "value": 0.0242, "unit": "µg/mL"}]}
{"binder": "单克隆抗体8H9 (antibody, V domains shown) VH: QIQLVQSGPELKKPGETVKISCKASGYTFTTYGMSWVKQTPGKGLKWMGWINTYSGVPTYADDFKGRFAFSLETSASTASLQINNLKNEDTATYFCARYDPTAPDYAMDYWGQGTSVTVSS VL: NIVMTQSPKSMSMSVGERVTLSCKASENVGTYVSWYQQKPEQSPKLLIYGASNRYTGVPDRFTGSGSATDFTLTISSVQAEDLADYHCGQSYIYPLTFGAGTNLELK", "values": [{"measurement": "假病毒中和活性IC50", "setting": "SARS-CoV-2野生株假病毒 (刺突蛋白)", "value": 33, "unit": "ng/mL"}, {"measurement": "EC50", "setting": "[1]", "value": 0.0251, "unit": "µg/mL"}]}
